Measurements as given in the Human Domainome abundance scans (Beltran et al. 2025).
± gives the uncertainty stated by the source.

B1: Glucocorticoid receptor, residues 419 to 494; numbered along this chain, P04150 (parent)
chain: KLCLVCSDEASGCHYGVLTCGSCKVFFKRAVEGQHNYLCAGRNDCIIDKIRRKNCPACRYRKCLQAGMNLEARKTK

Variants of: B1
Test: abundance fitness (aPCA) (normalised: wild type 0, dead -1); higher = more abundant; growth selection in yeast, the domain comes from the species named
Conditions: Homo sapiens

Row | Variant | abundance fitness
1 | R59Q | -0.259 ± 0.048
2 | G21P | -0.008 ± 0.056
3 | F26Y | -0.36 ± 0.12
4 | D8W | -0.521 ± 0.064
5 | G12F | -0.083 ± 0.071
6 | K62L | -0.048 ± 0.034
7 | T19S | 0.034 ± 0.039
8 | Y60N | -0.478 ± 0.13
9 | D44C | 0.009 ± 0.089
10 | K1L | -0.236 ± 0.058
11 | T19W | -0.743 ± 0.11
12 | R51C | -0.215 ± 0.068
13 | G21L | -0.037 ± 0.037
14 | Y37R | -0.211 ± 0.044
15 | A40F | -0.088 ± 0.17
16 | C20M | -0.651 ± 0.13
17 | M68I | -0.422 ± 0.17
18 | Y37C | -0.299 ± 0.12
19 | R61V | 0.064 ± 0.035
20 | G21C | -0.064 ± 0.06
21 | V25E | 0.051 ± 0.076

Row | Variant | abundance fitness
22 | C20T | -0.87 ± 0.17
23 | M68E | -0.529 ± 0.086
24 | Q34K | -0.035 ± 0.046
25 | N69I | -0.089 ± 0.081
26 | Y60D | -0.907 ± 0.17
27 | E9P | 0.074 ± 0.047
28 | L38T | -0.035 ± 0.049
29 | V25N | -0.081 ± 0.09
30 | F27I | -0.26 ± 0.08
31 | Q34D | -0.046 ± 0.074
32 | K49R | -0.004 ± 0.029
33 | G33D | 0.05 ± 0.066
34 | C55Y | -0.66 ± 0.16
35 | D48V | -0.596 ± 0.059
36 | S22D | 0.136 ± 0.3
37 | K53H | -0.038 ± 0.079
38 | D44E | 0.032 ± 0.044
39 | C63K | -0.779 ± 0.14
40 | I46L | -0.039 ± 0.031
41 | I46R | -0.012 ± 0.027
42 | C20L | -1.14 ± 0.17

Row | Variant | abundance fitness
43 | D48W | -0.415 ± 0.049
44 | L18N | -0.1 ± 0.081
45 | I47A | -0.368 ± 0.043
46 | K76W | -0.137 ± 0.083
47 | C58G | -0.81 ± 0.11
48 | F27R | -0.678 ± 0.053
49 | D8Q | -0.035 ± 0.051
50 | C3L | -0.918 ± 0.11
51 | Q65P | -0.567 ± 0.079
52 | L2K | 0.063 ± 0.045
53 | Y60V | -0.215 ± 0.037
54 | A40E | -0.048 ± 0.039
55 | C39G | -0.716 ± 0.059
56 | E9K | 0.105 ± 0.057
57 | G67D | -0.347 ± 0.12
58 | R42T | 0.036 ± 0.043
59 | G21Q | 0.13 ± 0.055
60 | A66T | 0.029 ± 0.047
61 | Q34P | -0.114 ± 0.051
62 | K24L | -0.134 ± 0.045
63 | C58H | -0.701 ± 0.18

Row | Variant | abundance fitness
64 | N69F | -0.023 ± 0.062
65 | C63N | -0.667 ± 0.21
66 | I46E | -0.009 ± 0.037
67 | D44P | -0.323 ± 0.057
68 | H14T | -0.161 ± 0.049
69 | G21Y | -0.031 ± 0.077
70 | L2C | -0.068 ± 0.05
71 | R73C | -0.019 ± 0.052
72 | G41A | -0.016 ± 0.036
73 | C3Y | -0.764 ± 0.24
74 | G12M | -0.071 ± 0.042
75 | G33Y | 0.035 ± 0.065
76 | G33N | 0.115 ± 0.1
77 | G12C | -0.194 ± 0.078
78 | D8E | -0.033 ± 0.048
79 | D48S | -0.142 ± 0.04
80 | A72D | -0.017 ± 0.06
81 | L38Y | -0.035 ± 0.077
82 | K1A | -0.066 ± 0.055
83 | I47Q | -0.183 ± 0.056
84 | C39S | -0.927 ± 0.12
